Results on 1 substance are retold here after paper PMC11603662.

Assay [1] concerns the target CaV2.1-F1406C (human). Description: co-IP; HEK293T cells coexpressing the two proteins, 10 uM MG132 for 24 h; lysates immunoprecipitated with anti-Myc on protein A/G sepharose, 16 h at 4 C; immunoblot. Background: In western blotting, separated proteins are transferred to a membrane and probed.
Assay [2] addresses Myc-tagged human long carboxy-terminal CaV2.1 (CaV2.1-6myc) (human) (UniProt O00555). Described as above.

Sequence of CaV2.1-F1406C (human) (O00555 whole entry, stated change not applied): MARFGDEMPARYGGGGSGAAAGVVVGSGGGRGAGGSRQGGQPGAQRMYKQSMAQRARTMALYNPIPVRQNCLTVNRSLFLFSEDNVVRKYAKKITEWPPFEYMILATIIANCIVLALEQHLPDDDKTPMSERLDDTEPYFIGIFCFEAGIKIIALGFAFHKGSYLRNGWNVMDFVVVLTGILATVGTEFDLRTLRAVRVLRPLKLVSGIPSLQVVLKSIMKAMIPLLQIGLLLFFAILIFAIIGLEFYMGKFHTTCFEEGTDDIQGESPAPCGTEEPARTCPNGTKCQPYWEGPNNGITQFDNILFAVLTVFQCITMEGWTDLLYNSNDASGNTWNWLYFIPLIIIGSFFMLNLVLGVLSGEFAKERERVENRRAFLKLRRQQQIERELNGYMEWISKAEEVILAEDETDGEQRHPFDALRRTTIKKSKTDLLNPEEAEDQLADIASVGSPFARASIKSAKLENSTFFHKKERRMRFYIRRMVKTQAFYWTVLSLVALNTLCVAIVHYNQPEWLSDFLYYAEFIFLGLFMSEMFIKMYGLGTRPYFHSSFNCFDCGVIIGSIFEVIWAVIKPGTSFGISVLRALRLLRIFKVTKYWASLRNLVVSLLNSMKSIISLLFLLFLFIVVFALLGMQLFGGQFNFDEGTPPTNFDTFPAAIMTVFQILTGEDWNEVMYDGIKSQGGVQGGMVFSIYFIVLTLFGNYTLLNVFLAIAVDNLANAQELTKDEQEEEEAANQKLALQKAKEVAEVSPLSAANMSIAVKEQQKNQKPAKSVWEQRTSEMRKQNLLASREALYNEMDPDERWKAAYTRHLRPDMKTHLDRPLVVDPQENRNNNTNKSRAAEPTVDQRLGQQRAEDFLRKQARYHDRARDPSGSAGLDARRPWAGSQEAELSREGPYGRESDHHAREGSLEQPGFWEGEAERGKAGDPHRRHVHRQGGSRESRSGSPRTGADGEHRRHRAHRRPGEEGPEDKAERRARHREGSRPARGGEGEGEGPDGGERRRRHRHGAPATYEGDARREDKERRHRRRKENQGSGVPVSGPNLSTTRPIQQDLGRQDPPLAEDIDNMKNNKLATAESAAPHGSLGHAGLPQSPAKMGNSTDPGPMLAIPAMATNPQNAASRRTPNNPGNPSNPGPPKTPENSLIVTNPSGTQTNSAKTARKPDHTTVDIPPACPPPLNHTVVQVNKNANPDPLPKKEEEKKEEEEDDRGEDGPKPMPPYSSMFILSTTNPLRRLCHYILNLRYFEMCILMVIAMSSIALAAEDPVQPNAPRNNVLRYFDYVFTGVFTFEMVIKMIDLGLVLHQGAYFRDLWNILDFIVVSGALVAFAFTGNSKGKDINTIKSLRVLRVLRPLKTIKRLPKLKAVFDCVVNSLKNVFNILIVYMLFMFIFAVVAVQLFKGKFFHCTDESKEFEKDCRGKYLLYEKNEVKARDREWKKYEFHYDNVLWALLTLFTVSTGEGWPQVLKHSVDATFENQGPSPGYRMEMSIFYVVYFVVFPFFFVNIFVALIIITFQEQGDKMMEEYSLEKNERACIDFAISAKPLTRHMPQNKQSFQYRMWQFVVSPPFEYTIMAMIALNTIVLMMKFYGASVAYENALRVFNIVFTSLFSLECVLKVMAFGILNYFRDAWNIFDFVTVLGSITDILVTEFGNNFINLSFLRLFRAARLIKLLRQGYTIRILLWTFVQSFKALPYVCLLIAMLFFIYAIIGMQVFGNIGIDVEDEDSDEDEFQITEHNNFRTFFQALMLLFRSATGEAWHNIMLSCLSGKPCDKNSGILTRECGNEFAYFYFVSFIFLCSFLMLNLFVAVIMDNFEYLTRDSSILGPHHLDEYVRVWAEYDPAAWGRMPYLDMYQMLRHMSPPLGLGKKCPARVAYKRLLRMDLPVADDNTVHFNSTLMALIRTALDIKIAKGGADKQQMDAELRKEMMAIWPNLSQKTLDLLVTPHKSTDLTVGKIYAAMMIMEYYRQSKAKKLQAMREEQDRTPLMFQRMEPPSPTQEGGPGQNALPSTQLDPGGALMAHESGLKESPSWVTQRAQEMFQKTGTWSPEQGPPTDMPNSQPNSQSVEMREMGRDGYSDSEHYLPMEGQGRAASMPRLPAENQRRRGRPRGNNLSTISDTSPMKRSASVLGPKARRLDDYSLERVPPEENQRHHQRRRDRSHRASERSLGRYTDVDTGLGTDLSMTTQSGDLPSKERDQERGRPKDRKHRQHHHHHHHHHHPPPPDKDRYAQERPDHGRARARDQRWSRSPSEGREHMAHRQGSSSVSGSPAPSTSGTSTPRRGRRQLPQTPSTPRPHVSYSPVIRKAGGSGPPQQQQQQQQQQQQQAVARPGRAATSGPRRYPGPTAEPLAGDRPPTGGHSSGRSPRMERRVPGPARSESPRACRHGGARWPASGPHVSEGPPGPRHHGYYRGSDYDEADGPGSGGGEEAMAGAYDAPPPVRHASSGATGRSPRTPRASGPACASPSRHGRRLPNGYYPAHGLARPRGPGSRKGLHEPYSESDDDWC

With HA-tagged rat Pin1 (HA-Pin1) (enzyme), the normalized coimmunoprecipitated Pin1 protein level (relative to CaV2.1 WT) is 1.32 in assay [1] and 1 in assay [2].
